Data on one protein can be found in ChEMBL document CHEMBL3352481, “Synthesis of {[5-(adenin-9-yl)-2-furyl]methoxy}methyl phosphonic acid and evaluations against human adenylate kinases” (Bioorg Med Chem Lett, 2014).

Common to all, as to conditions: Homo sapiens
Substrate in series [1]: Nc1ncnc2c1ncn2-c1ccc(CO)o1
The series is described as follows: (§1) Ratio of Kcat to Km for recombinant AK1 (unknown origin).

Substrate in series [2]: C[C@H](Cn1cnc2c(N)ncnc21)OCP(=O)(O)O
The description is as §1.

Substrate in series [3]: Nc1ncnc2c1ncn2CCOCP(=O)(O)O
The description is as §1.

Substrate in series [4]: Nc1ncnc2c1ncn2[C@@H]1O[C@H](COP(=O)(O)O)[C@@H](O)[C@H]1O
The series is described as §1.

Substrate in series [5]: Nc1ncnc2c1ncn2[C@H]1C[C@H](O)[C@@H](COP(=O)(O)O)O1
The description is as §1.

Substrate in series [6]: Nc1ncnc2c1ncn2-c1ccc(COCP(=O)(O)O)o1
The description is as §1.

Substrate in series [7]: Nc1ncnc2c1ncn2-c1ccc(CO)o1
Briefly: (§2) Activity of recombinant AK1 (unknown origin) assessed as ADP formation by spectroscopic pyruvate kinase/lactate dehydrogenase coupled assay.

Substrate in series [8]: C[C@H](Cn1cnc2c(N)ncnc21)OCP(=O)(O)O
Described as §2.

Substrate in series [9]: Nc1ncnc2c1ncn2CCOCP(=O)(O)O
The series is described as §2.

Substrate in series [10]: Nc1ncnc2c1ncn2[C@@H]1O[C@H](COP(=O)(O)O)[C@@H](O)[C@H]1O
The description is as §2.

Substrate in series [11]: Nc1ncnc2c1ncn2[C@H]1C[C@H](O)[C@@H](COP(=O)(O)O)O1
The series is described as §2.

Substrate in series [12]: Nc1ncnc2c1ncn2-c1ccc(COCP(=O)(O)O)o1
The series is described as §2.

B1: Adenylate kinase isoenzyme 1 (Homo sapiens), P00568 (protein)
chain: MEEKLKKTKIIFVVGGPGSGKGTQCEKIVQKYGYTHLSTGDLLRSEVSSGSARGKKLSEIMEKGQLVPLETVLDMLRDAMVAKVNTSKGFLIDGYPREVQQGEEFERRIGQPTLLLYVDAGPETMTQRLLKRGETSGRVDDNEETIKKRLETYYKATEPVIAFYEKRGIVRKVNAEGSVDSVFSQVCTHLDALK
On to B1, for which the kcat/Km result was “Not Active” in series [1]; 75 M⁻¹ s⁻¹ in series [2]; 14 ×10⁶ /M/s in series [3]; 2.85 ×10⁶ /M/s in series [4]; 0.16 ×10⁶ /M/s in series [5]; “Not Active” in series [6]. For the same protein, the Michaelis-Menten constant (Km) result in [7] is “Not Active”; in [8] it was 3000 µM; in [9] it was 6000 µM; in series [10], 175 µM; in series [11], 1500 µM; in [12], “Not Active”. Also, the kcat result in [7] was “Not Active”; in series [8], 0.22 s⁻¹; in [9], 0.08 s⁻¹; in series [10] it was 500 s⁻¹; in series [11], 240 s⁻¹; in series [12], “Not Active”.
